PMC12102759 (2025)

B1: PAIP1 peptide 124-139 (Polyadenylate-binding protein-interacting protein 1), 16-mer library wild type / PABPC1 PABC (PABPC1 PABC domain, residues 544-623) (parent complex)
chain 1: LMSKLSVNAPEFYPSG
chain 2: PLTASMLASAPPQEQKQMLGERLFPLIQAMHPTLAGKITGMLLEIDNSELLHMLESPESLRSKVDEAVAVLQAHQAKEAA

Variants of: B1
Experiment: proteomic peptide phage display deep mutational scan (ProP-PD DMS): M13 P8 16-mer library selected against immobilised GST-tagged bait for four days (rounds), NGS of the eluted pools per day and pseudo-replica; bait immobilised on MaxiSorp plates (10 µg), library pre-cleared on GST, 2 h binding at 4 °C, five washes; one round per day, days 1-4; value from days 2 and 3

Variant	screen value
chain 1 P10Q	0.000419 average fractional NGS count over selection days 2 and 3 (reads of this peptide / all reads for the bait, averaged over …
chain 1 P10D	0.00221 average fractional NGS count over selection days 2 and 3 (reads of this peptide / all reads for the bait, averaged over …
chain 1 P10I	0.000358 average fractional NGS count over selection days 2 and 3 (reads of this peptide / all reads for the bait, averaged over …
chain 1 P10L	0.00239 average fractional NGS count over selection days 2 and 3 (reads of this peptide / all reads for the bait, averaged over …
chain 1 P10N	0.00136 average fractional NGS count over selection days 2 and 3 (reads of this peptide / all reads for the bait, averaged over …
chain 1 N8Y	0.000292 average fractional NGS count over selection days 2 and 3 (reads of this peptide / all reads for the bait, averaged over …
chain 1 N8A	0.000206 average fractional NGS count over selection days 2 and 3 (reads of this peptide / all reads for the bait, averaged over …
chain 1 N8M	0.000551 average fractional NGS count over selection days 2 and 3 (reads of this peptide / all reads for the bait, averaged over …
chain 1 N8L	0.00116 average fractional NGS count over selection days 2 and 3 (reads of this peptide / all reads for the bait, averaged over …
chain 1 N8F	0.00423 average fractional NGS count over selection days 2 and 3 (reads of this peptide / all reads for the bait, averaged over …
chain 1 N8S	0.00131 average fractional NGS count over selection days 2 and 3 (reads of this peptide / all reads for the bait, averaged over …
chain 1 N8W	0.000471 average fractional NGS count over selection days 2 and 3 (reads of this peptide / all reads for the bait, averaged over …
chain 1 F12W	0.00452 average fractional NGS count over selection days 2 and 3 (reads of this peptide / all reads for the bait, averaged over …
chain 1 Y13T	0.00149 average fractional NGS count over selection days 2 and 3 (reads of this peptide / all reads for the bait, averaged over …
chain 1 Y13I	0.021 average fractional NGS count over selection days 2 and 3 (reads of this peptide / all reads for the bait, averaged over …
chain 1 Y13M	0.000346 average fractional NGS count over selection days 2 and 3 (reads of this peptide / all reads for the bait, averaged over …
chain 1 Y13V	0.000146 average fractional NGS count over selection days 2 and 3 (reads of this peptide / all reads for the bait, averaged over …
chain 1 Y13W	0.00367 average fractional NGS count over selection days 2 and 3 (reads of this peptide / all reads for the bait, averaged over …
chain 1 Y13L	0.00572 average fractional NGS count over selection days 2 and 3 (reads of this peptide / all reads for the bait, averaged over …
chain 1 Y13D	0.00104 average fractional NGS count over selection days 2 and 3 (reads of this peptide / all reads for the bait, averaged over …
chain 1 Y13R	0.000336 average fractional NGS count over selection days 2 and 3 (reads of this peptide / all reads for the bait, averaged over …
chain 1 Y13E	0.00175 average fractional NGS count over selection days 2 and 3 (reads of this peptide / all reads for the bait, averaged over …
chain 1 Y13H	0.000948 average fractional NGS count over selection days 2 and 3 (reads of this peptide / all reads for the bait, averaged over …
chain 1 Y13Q	0.00152 average fractional NGS count over selection days 2 and 3 (reads of this peptide / all reads for the bait, averaged over …
chain 1 Y13S	0.000669 average fractional NGS count over selection days 2 and 3 (reads of this peptide / all reads for the bait, averaged over …

Variant	screen value
chain 1 Y13K	0.00389 average fractional NGS count over selection days 2 and 3 (reads of this peptide / all reads for the bait, averaged over …
chain 1 S6N	0.000518 average fractional NGS count over selection days 2 and 3 (reads of this peptide / all reads for the bait, averaged over …
chain 1 S6W	0.000475 average fractional NGS count over selection days 2 and 3 (reads of this peptide / all reads for the bait, averaged over …
chain 1 S6T	0.0012 average fractional NGS count over selection days 2 and 3 (reads of this peptide / all reads for the bait, averaged over …
chain 1 E11P	0.000423 average fractional NGS count over selection days 2 and 3 (reads of this peptide / all reads for the bait, averaged over …
chain 1 E11V	0.00325 average fractional NGS count over selection days 2 and 3 (reads of this peptide / all reads for the bait, averaged over …
chain 1 E11S	0.00171 average fractional NGS count over selection days 2 and 3 (reads of this peptide / all reads for the bait, averaged over …
chain 1 E11T	0.000925 average fractional NGS count over selection days 2 and 3 (reads of this peptide / all reads for the bait, averaged over …
chain 1 E11M	0.000642 average fractional NGS count over selection days 2 and 3 (reads of this peptide / all reads for the bait, averaged over …
chain 1 E11I	0.000759 average fractional NGS count over selection days 2 and 3 (reads of this peptide / all reads for the bait, averaged over …
chain 1 S3A	0.00075 average fractional NGS count over selection days 2 and 3 (reads of this peptide / all reads for the bait, averaged over …
chain 1 S3T	0.00109 average fractional NGS count over selection days 2 and 3 (reads of this peptide / all reads for the bait, averaged over …
chain 1 S3K	0.000637 average fractional NGS count over selection days 2 and 3 (reads of this peptide / all reads for the bait, averaged over …
chain 1 S3H	0.000523 average fractional NGS count over selection days 2 and 3 (reads of this peptide / all reads for the bait, averaged over …
chain 1 S3E	0.000689 average fractional NGS count over selection days 2 and 3 (reads of this peptide / all reads for the bait, averaged over …
chain 1 S3Q	0.00262 average fractional NGS count over selection days 2 and 3 (reads of this peptide / all reads for the bait, averaged over …
chain 1 S3M	0.000284 average fractional NGS count over selection days 2 and 3 (reads of this peptide / all reads for the bait, averaged over …
chain 1 S3N	0.000537 average fractional NGS count over selection days 2 and 3 (reads of this peptide / all reads for the bait, averaged over …
chain 1 P14V	0.000836 average fractional NGS count over selection days 2 and 3 (reads of this peptide / all reads for the bait, averaged over …
chain 1 P14W	0.000356 average fractional NGS count over selection days 2 and 3 (reads of this peptide / all reads for the bait, averaged over …
chain 1 P14R	0.00035 average fractional NGS count over selection days 2 and 3 (reads of this peptide / all reads for the bait, averaged over …
chain 1 P14M	0.000928 average fractional NGS count over selection days 2 and 3 (reads of this peptide / all reads for the bait, averaged over …
chain 1 A9S	0.000704 average fractional NGS count over selection days 2 and 3 (reads of this peptide / all reads for the bait, averaged over …
chain 1 K4Q	0.00289 average fractional NGS count over selection days 2 and 3 (reads of this peptide / all reads for the bait, averaged over …
chain 1 K4H	0.00136 average fractional NGS count over selection days 2 and 3 (reads of this peptide / all reads for the bait, averaged over …

Variant	screen value
chain 1 K4G	0.000301 average fractional NGS count over selection days 2 and 3 (reads of this peptide / all reads for the bait, averaged over …
chain 1 K4A	0.00111 average fractional NGS count over selection days 2 and 3 (reads of this peptide / all reads for the bait, averaged over …
chain 1 K4N	0.0102 average fractional NGS count over selection days 2 and 3 (reads of this peptide / all reads for the bait, averaged over …
chain 1 K4P	0.0037 average fractional NGS count over selection days 2 and 3 (reads of this peptide / all reads for the bait, averaged over …
chain 1 K4I	0.000664 average fractional NGS count over selection days 2 and 3 (reads of this peptide / all reads for the bait, averaged over …
chain 1 K4L	0.0004 average fractional NGS count over selection days 2 and 3 (reads of this peptide / all reads for the bait, averaged over …
chain 1 K4Y	0.00101 average fractional NGS count over selection days 2 and 3 (reads of this peptide / all reads for the bait, averaged over …
chain 1 K4E	0.000553 average fractional NGS count over selection days 2 and 3 (reads of this peptide / all reads for the bait, averaged over …
chain 1 K4T	0.00284 average fractional NGS count over selection days 2 and 3 (reads of this peptide / all reads for the bait, averaged over …
chain 1 K4M	0.000922 average fractional NGS count over selection days 2 and 3 (reads of this peptide / all reads for the bait, averaged over …
chain 1 S15I	0.000837 average fractional NGS count over selection days 2 and 3 (reads of this peptide / all reads for the bait, averaged over …
chain 1 S15Q	0.000451 average fractional NGS count over selection days 2 and 3 (reads of this peptide / all reads for the bait, averaged over …
chain 1 S15G	0.00184 average fractional NGS count over selection days 2 and 3 (reads of this peptide / all reads for the bait, averaged over …
chain 1 S15M	0.00153 average fractional NGS count over selection days 2 and 3 (reads of this peptide / all reads for the bait, averaged over …
chain 1 S15H	0.0055 average fractional NGS count over selection days 2 and 3 (reads of this peptide / all reads for the bait, averaged over …
chain 1 S15D	0.00256 average fractional NGS count over selection days 2 and 3 (reads of this peptide / all reads for the bait, averaged over …
chain 1 S15F	0.00282 average fractional NGS count over selection days 2 and 3 (reads of this peptide / all reads for the bait, averaged over …
chain 1 S15E	0.0098 average fractional NGS count over selection days 2 and 3 (reads of this peptide / all reads for the bait, averaged over …
chain 1 S15R	0.00163 average fractional NGS count over selection days 2 and 3 (reads of this peptide / all reads for the bait, averaged over …
chain 1 S15W	0.000557 average fractional NGS count over selection days 2 and 3 (reads of this peptide / all reads for the bait, averaged over …
chain 1 S15T	0.000722 average fractional NGS count over selection days 2 and 3 (reads of this peptide / all reads for the bait, averaged over …
chain 1 S15K	0.000858 average fractional NGS count over selection days 2 and 3 (reads of this peptide / all reads for the bait, averaged over …
chain 1 S15P	0.000374 average fractional NGS count over selection days 2 and 3 (reads of this peptide / all reads for the bait, averaged over …
chain 1 S15A	0.00144 average fractional NGS count over selection days 2 and 3 (reads of this peptide / all reads for the bait, averaged over …
chain 1 S15Y	0.00169 average fractional NGS count over selection days 2 and 3 (reads of this peptide / all reads for the bait, averaged over …
